B1: TPR 5TU (parent)
chain: GGAUCUUCUCGAUCUAACAAAAAAGACAAAUCUGCCACAAAGCUUGAGAGCAUCUUCGGAUGCAGAGGCGGCAGCCUUCGGUGGCGCGAUAGCGCCAACGUUCUCAACUAUGACACGCAAAACGCGUGCUCCGUUGAAUGGAGUUUAUCAUG

The values that follow come from the RNAGym collection of RNA variant scans (doi:10.1073/pnas.2313332121).

Variants at the floor of the assay were thinned out. Where only a bound is given, the exact number is not on record here.

Variants of B1 are the subject of the series. The experiment in a line: polymerase ribozyme fitness, log enrichment relative to wild type (log ratio); higher = more active; in vitro selection for triplet polymerase activity. The essentials: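 One round of in vitro selection, in triplicate, was applied to PCR-built, transcribed mutant libraries of each subunit of a heterodimeric triplet polymerase ribozyme. The steps were annealing with a biotinylated primer, partner subunit and triplets, incubation frozen at −7 °C, gel excision of extended constructs, streptavidin-bead capture and RT-PCR. Fitness is the logarithm, base 2, of genotype enrichment over wild-type enrichment from inverse-variance-weighted replicate averages of Illumina-sequenced inputs and outputs, keeping genotypes with ≥10 input reads and ≥1 read per output.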
In the case of GGAUCUUCUCGAUCUAACAAAAAAGACAAAUCUGCCACAAAGCUUGAGAGCAUCUUCGGAUGCAGAGGCGGCAGCUUUCGGUGGCGGGAUAGCGCCAACGUUCUCAACUAUGACACGCAAAACGGGUGCUCCGUUGAAUGGAGUUUAUCAUG [C76U C87G C125G], the “polymerase ribozyme fitness (log ratio)” value was at most -4.2. Then GGAUCUUCUCGAUCUAACAAAAAAGACAAAUCUGCCACAAAGCUUGAGAGCAUCUUCGGAUGCAGAGGCGGCAGCUUUCGGUGGCGCGAUAGCGCCAACGUUCUCAACUAUGACACGCGAAACGCUUGCUCCGUUGAAGGGAGUUUAUCAUG [C76U A119G G126U U139G], with -0.649; and GGAUCUUCUCGAUCUAACAAAAAAGACAAAUCUGCCACAAAGCUUGAGAGCAUCUUCGGAUGCAGAGGCGGCAGCUUUCGGUGGGGCGAUAGCGCCAACGUUCUCAACUAUGACACGCAAAACGCGUGCUCCGUUGAAUGGAGUUUCUCAUG [C76U C85G A147C], with -0.612. Consider GGAUCUUCUCGAUCUAACAAAAAAGACAAAUCUGCCACAAAGCUUGAGAGCAUCUUCGGAUGCAGAGGCGGCAGCUUUCGGUGGUGCGAUAGCGCCAAGGUUCUCAACUAUGACACGCAAAACGCGUGCUCCGUUGAAUGGAGUUUAUCAUG [C76U C85U C99G], for which the “polymerase ribozyme fitness (log ratio)” value is -1.05. GGAUCUUCUCGAUCUAACAAAAAAGACAAAUCUGCCACAAAGCUUGAGAGCAUCUUCGGAUGCAGAGGCGGCAGCUUUCGGUGGCGUGAUAGCGCCAACGUUCUCAACUAUGACACGCAAAACGCGUGCUCCGUUGAAUUGAGUUCAUCAUG [C76U C87U G140U U146C]: the “polymerase ribozyme fitness (log ratio)” value is -3.72. Consider GGAUCUUCUCGAUCUAACAAAAAAGACAAAUCUGCCACAAAGCUUGAGAGCAUCUUCGGAUGCAGAGGCGGCAGCUUUCGGUGGCGCGAUUACGCCAACGUUCUCAACUAUGACACGCAAAACGCGUGCUCCGUUGAAUGGAGUUUAUCAUG [C76U A91U G92A], for which the “polymerase ribozyme fitness (log ratio)” value was -4.02.

Consider GGAUCUUCUCGAUCUAACAAAAAAGACAAAUCUGCCACAAAGCUUGAGAGCAUCUUCGGAUGCAGAGGCGGCAGCUUUCGGUGGCGGGAUAGCGCCAACGUUCUCAACUAUGACACGCAAAACGCGUGCUCCGUUGAAUGGAGUUUAUCAUG [C76U C87G], for which the “polymerase ribozyme fitness (log ratio)” value was -3.96. For the variant GGAUCUUCUCGAUCUAACAAAAAAGACAAAUCUGCCACAAAGCUUGAGAGCAUCUUCGGAUGCAGAGGCGGCAGCUUUCGGUGGCGAGAUAGCGCCAACGUUCUCAACUAUGACACGCAAAACGCGUGCUCCGUUGAAUGGAGUUUAUCAUG [C76U C87A], the “polymerase ribozyme fitness (log ratio)” value was -3.85.

GGAUCUUCUCGAUCUAACAAAAAAGACAAAUCUGCCACAAAGCUUGAGAGCAUCUUCGGAUGCAGAGGCGGCAGCUUUCGGUGGCGCGAUAGCGCCGACAUUCUCAACUAUGACACGCAAAACGCGUGCUCCGUUGAAUGGGGUUUAUCAUG [C76U A97G G100A A142G]: the “polymerase ribozyme fitness (log ratio)” value was at most -4.2.

On to GGAUCUUCUCGAUCUAACAAAAAAGACAAAUCUGCCACAAAGCUUGAGAGCAUCUUCGGAUGCAGAGGCGGCAGCUUUCGGUGGUGCGAUAGCGCCAACGUUCUCAACUAUGACACGCAAAACGCGUGCUCCGUUGAAUGGAGUUUAUCAUG [C76U C85U], for which the “polymerase ribozyme fitness (log ratio)” value is -2.03. Turning to GGAUCUUCUCGAUCUAACAAAAAAGACAAAUCUGCCACAAAGCUUGAGAGCAUCUUCGGAUGCAGAGGCGGCAGCUUUCGGUGGAGCGAUAGCGCCAACGUUCUCAACUAUGACACGCAAAACGCGUGCUCCGUUGAAUGCAGUUUACCAUG [C76U C85A G141C U148C], the “polymerase ribozyme fitness (log ratio)” value was -3.74.

As for GGAUCUUCUCGAUCUAACAAAAAAGACAAAUCUGCCACAAAGCUUGAGAGCAUCUUCGGAUGCAGAGGCGGCAGCUUUCGGUGGCGCGAUAGCGCCAACGUUCUCAACUAUGACCCGCAAAACGCGUGCUCCGUUGAAUGGAGUUUAUCAUG [C76U A115C], the “polymerase ribozyme fitness (log ratio)” value was -0.614. Consider GGAUCUUCUCGAUCUAACAAAAAAGACAAAUCUGCCACAAAGCUUGAGAGCAUCUUCGGAUGCAGAGGCGGCAGCUUUCGGUGGCGCGAUUGCGCCAACGUUCUCAACUAUGACACGCAAAACGCGUGCUCCGUUGAAUGGAGUUUAUCAUG [C76U A91U], for which the “polymerase ribozyme fitness (log ratio)” value is -4.13. For the variant GGAUCUUCUCGAUCUAACAAAAAAGACAAAUCUGCCACAAAGCUUGAGAGCAUCUUCGGAUGCAGAGGCGGCAGCUUUCGGUGGAGCGAUAGCGCCAACGUUCUCCACUAUGACACGCAAAACGCGUGCUCCGUUGAAUGGAGUUUAUCAUG [C76U C85A A106C], the “polymerase ribozyme fitness (log ratio)” value was at most -4.2. As to GGAUCUUCUCGAUCUAACAAAAAAGACAAAUCUGCCACAAAGCUUGAGAGCAUCUUCGGAUGCAGAGGCGGCAGCUUUCGGUGGCGCGGUAGCGCCAACGUUCUCAACUAUGACACGCAAAACGCGUGCUCCGUUGAAUGGAGUUUAUCAUG [C76U A89G], the “polymerase ribozyme fitness (log ratio)” value is -1.03. Regarding GGAUCUUCUCGAUCUAACAAAAAAGACAAAUCUGCCACAAAGCUUGAGAGCAUCUUCGGAUGCAGAGGCGGCAGCUUUCGGUGGCGCGAUAGCGCCAACGUUCUCAACUAUGACACGCAAAACGCGUGCUCCGUUGAAUGGAGUUUAUCAUG [C76U], the “polymerase ribozyme fitness (log ratio)” value was found to be 0.0494. Take GGAUCUUCUCGAUCUAACAAAAAAGACAAAUCUGCCACAAAGCUUGAGAGCAUCUUCGGAUGCAGAGGCGGCAGCUUUCGGUGGCGCGAUAGCGCCAACGUUCUCAACUAUGACACGCAAAGCGCGUGCUCCGUUGAAUGGAGUUUAUCAUG [C76U A122G]: the “polymerase ribozyme fitness (log ratio)” value is -0.0921.

With GGAUCUUCUCGAUCUAACAAAAAAGACAAAUCUGCCACAAAGCUUGAGAGCAUCUUCGGAUGCAGAGGCGGCAGCUUUCGGUGGCGCGAUAGCGCCAACGUUCUCAACUAUGACACGCAAAACGCGUGCUCCGUUGAAUGGAGUUUAUCUUG [C76U A150U], the “polymerase ribozyme fitness (log ratio)” value amounted to 0.843. As to GGAUCUUCUCGAUCUAACAAAAAAGACAAAUCUGCCACAAAGCUUGAGAGCAUCUUCGGAUGCAGAGGCGGCAGCUUUCGGUGGCGCGAUAGCGCCAACGUUCUCAACUAUGACACGCAAAACGCGUGCUCCGUUGAAUGGAGUUUAUCCUG [C76U A150C], the “polymerase ribozyme fitness (log ratio)” value is -3.79.
